Here are results for 6 molecules from patent US5534410, “TATA-binding protein associated factors drug screens” (The Regents of the University of California, dated 1996).

For assay [1], the target named is T1, GST-NTF-1 fusion protein containing the N-terminal 284 amino acids of NTF-1 (Drosophila, UniProt P13002).
T1 sequence: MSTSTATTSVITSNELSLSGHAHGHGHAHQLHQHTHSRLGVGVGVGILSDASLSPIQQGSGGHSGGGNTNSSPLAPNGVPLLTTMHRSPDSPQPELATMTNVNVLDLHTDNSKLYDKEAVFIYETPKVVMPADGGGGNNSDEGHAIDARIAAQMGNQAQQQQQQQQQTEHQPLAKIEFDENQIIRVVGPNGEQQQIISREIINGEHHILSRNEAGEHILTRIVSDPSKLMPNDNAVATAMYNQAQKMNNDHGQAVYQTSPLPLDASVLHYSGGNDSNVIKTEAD
The assay can be described thus: GST-NTF-1 fusion binding assay.

Assay [2] addresses acidic activation domain of GAL4 (residues 768-881) (Saccharomyces cerevisiae (strain ATCC …, UniProt P04386)). Put plainly: yeast two-hybrid.
Assay [3] concerns the target T2, Drosophila TATA-binding protein (dTBP) (Drosophila, UniProt P20227).
T2 sequence: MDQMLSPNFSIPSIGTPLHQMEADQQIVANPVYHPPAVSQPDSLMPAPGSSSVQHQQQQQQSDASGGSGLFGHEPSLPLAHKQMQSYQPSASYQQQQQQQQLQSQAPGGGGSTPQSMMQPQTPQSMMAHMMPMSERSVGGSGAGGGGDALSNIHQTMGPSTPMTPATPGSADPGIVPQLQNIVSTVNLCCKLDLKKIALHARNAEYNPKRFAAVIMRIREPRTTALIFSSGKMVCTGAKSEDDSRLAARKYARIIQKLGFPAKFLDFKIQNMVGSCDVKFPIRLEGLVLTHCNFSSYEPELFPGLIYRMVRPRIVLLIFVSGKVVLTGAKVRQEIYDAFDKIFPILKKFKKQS
Put plainly: coimmunoprecipitation of in vitro expressed proteins.

Assay [4] has as its target control resin that lacked Sp1 (streptavidin-agarose with biotinylated oligonucleotides) (Streptomyces avidinii, UniProt P22629). Put plainly: 35S-TAF110 on control DNA affinity resin, SDS-PAGE, autoradiography.
The target of assay [5] is Sp1, over-expressed and purified from HeLa cells infected with a vaccinia virus expression vector (Homo sapiens (Human), UniProt P08047). Put plainly: in vitro binding to DNA-bound Sp1 resin.
A further assay deals with radiolabeled nTBP (Homo sapiens (Human), UniProt P20226). Put plainly: Far Western with radiolabeled probe.
Assay [6] has as its target human TATA-binding protein (hTBP) (human, UniProt P20226). Put plainly: Far Western of immunoprecipitated hTFIID complex with 35S-labeled hTBP.

B1: dTAFII80 (other)
chain: MSLEVSNINGGNGTQLSHDKRELLCLLKLIKKYQLKSTEELLCQEANVSSVELSEISESDVQQVLGAVLGAGDANRERKHVQSPAQGHKQSAVTEANAAEELAKFIDDDSFDAQHYEQAYKELRTFVEDSLDIYKHELSMVLYPILVQIYFKILASGLREKAKEFIEKYKCDLDGYYIEGLFNLLLLSKPEELLENDLVVAMEQDKFVIRMSRDSHSLFKRHIQDRRQEVVADIVSKYLHFDTYEGMARNKLQCVATAGSHLGEAKRQDNKMRVYYGLLKEVDFQTLTTPAPAPEEEDDDPDAPDRPKKKKPKKDPLLSKKSKSDPNAPSIDRIPLPELKDSDKLLKLKALREASKRLALSKDQLPSAVFYTVLNSHQGVTCAEISDDSTMLACGFGDSSVRIWSLTPAKLRTLKDADSLRELDKESADINVRMLDDRSGEVTRSLMGHTGPVYRCAFAPEMNLLLSCSEDSTIRLWSLLTWSCVVTYRGHVYPVWDVRFAPHGYYFVSCSYDKTARLWATDSNQALRVFVGHLSDVDCVQFHPNSNYVATGSSDRTVRLWDNMTGQSVRLMTGHKGSVSSLAFSACGRYLASGSVDHNIIIWDLSNGSLVTTLLRHTSTVTTITFSRDGTVLAAAGLDNNLTLWDFHKVTEDYISNHITVSHHQDENDEDVYLMRTFPSKNSPFVSLHFTRRNLLMCVGLFKS
As for B1, the binding result in assay [1] is listed as “no binding”.

B2: G4-110 (fl): full-length TAF110 fused to the DNA binding domain of GAL4, G4(1-147) (other)
chain: MNTSQTAAGNRITFTSQPLPNGTISIAGNPGAVISTAQLPNTTTIKTIQAGIGGQHQGLQQVHHVQQQQQSQQQQQQQQQTQSAGQPLLNSMLPAGVVVGMRQQAPSQQQQKNVPTNPLSRVVINSHMAGVRPQSPSITLSTLNTGQTPALLVKTDNGFQLLRVGTTTGPPTVTQTITNTSNNSNTTSTTNHPTTTQIRLQTVPAAASMTNTTATSNIIVNSVASSGYANSSQPPHLTQLNAQAPQLPQITQIQTIPAQQSQQQQVNNVSSAGGTATAVSSTTAATTTQQGNTKEKCRKFLANLIELSTREPKPVEKNVRTLIQELVNANVEPEEFCDRLERLLNASPQPCLIGFLKKSLPLLRQALYTKELVIEGIKPPPQHVLGLAGLSQQLPKIQAQIRPIGPSQTTTIGQTQVRMITPNALGTPRPTIGHTTISKQPPNIRLPTAPRLVNTGGIRTQIPSLQVPGQANIVQIRGPQHAQLQRTGSVQIRATTRPPNSVPTANKLTAVKVGQTQIKAITPSLHPPSLAAISGGPPPTPTLSVLSTLNSASTTTLPIPSLPTVHLPPEALRAREQMQNSLNHNSNHFDAKLVEIKAPSLHPPHMERINASLTPIGAKTMARPPPAINKAIGKKKRDAMEMDAKLNTSSGGAASAANSFFQQSSMSSMYGDDDINDVAAMGGVNLAEESQRILGCTENIGTQIRSCKDEVFLNLPSLQARIRAITSEAGLDEPSQDVAVLISHACQERLKNIVEKLAVIAEHRIDVIKLDPRYEPAKDVRGQIKFLEELDKAEQKRHEELEREMLLRAAKSRSRVEDPEQAKMKARAKEMQRAEMEELRQRDANLTALQAIGPRKKLKLDGETVSSGAGSSGGGVLSSSGSAPTTLRPRIKRVNLRDMLFYMEQEREFCRSSMLFKTYLK
Turning to B2, the binding result in assay [2] is recorded as “no binding”.

B3: Drosophila TAF110 (dTAFII110), full-length (other)
chain: MNTSQTAAGNRITFTSQPLPNGTISIAGNPGAVISTAQLPNTTTIKTIQAGIGGQHQGLQQVHHVQQQQQSQQQQQQQQQTQSAGQPLLNSMLPAGVVVGMRQQAPSQQQQKNVPTNPLSRVVINSHMAGVRPQSPSITLSTLNTGQTPALLVKTDNGFQLLRVGTTTGPPTVTQTITNTSNNSNTTSTTNHPTTTQIRLQTVPAAASMTNTTATSNIIVNSVASSGYANSSQPPHLTQLNAQAPQLPQITQIQTIPAQQSQQQQVNNVSSAGGTATAVSSTTAATTTQQGNTKEKCRKFLANLIELSTREPKPVEKNVRTLIQELVNANVEPEEFCDRLERLLNASPQPCLIGFLKKSLPLLRQALYTKELVIEGIKPPPQHVLGLAGLSQQLPKIQAQIRPIGPSQTTTIGQTQVRMITPNALGTPRPTIGHTTISKQPPNIRLPTAPRLVNTGGIRTQIPSLQVPGQANIVQIRGPQHAQLQRTGSVQIRATTRPPNSVPTANKLTAVKVGQTQIKAITPSLHPPSLAAISGGPPPTPTLSVLSTLNSASTTTLPIPSLPTVHLPPEALRAREQMQNSLNHNSNHFDAKLVEIKAPSLHPPHMERINASLTPIGAKTMARPPPAINKAIGKKKRDAMEMDAKLNTSSGGAASAANSFFQQSSMSSMYGDDDINDVAAMGGVNLAEESQRILGCTENIGTQIRSCKDEVFLNLPSLQARIRAITSEAGLDEPSQDVAVLISHACQERLKNIVEKLAVIAEHRIDVIKLDPRYEPAKDVRGQIKFLEELDKAEQKRHEELEREMLLRAAKSRSRVEDPEQAKMKARAKEMQRAEMEELRQRDANLTALQAIGPRKKLKLDGETVSSGAGSSGGGVLSSSGSAPTTLRPRIKRVNLRDMLFYMEQEREFCRSSMLFKTYLK
Take B3: the binding result in assay [3] and in assay [4] was “no binding” in each case.

B4: TAF110 deletion mutant 1-137 (other)
chain: MNTSQTAAGNRITFTSQPLPNGTISIAGNPGAVISTAQLPNTTTIKTIQAGIGGQHQGLQQVHHVQQQQQSQQQQQQQQQTQSAGQPLLNSMLPAGVVVGMRQQAPSQQQQKNVPTNPLSRVVINSHMAGVRPQSPS
B4: the binding result in assay [5] is “no binding”.

B5: hTAFII250 (other)
chain: MGPGCDLLLRTAATITAAAIMSDTDSDEDSAGGGPFSLAGFLFGNINGAGQLEGESVLDDECKKHLAGLGALGLGSLITELTANEELTGTDGALVNDEGWVRSTEDAVDYSDINEVAEDESRRYQQTMGSLQPLCHSDYDEDDYDADCEDIDCKLMPPPPPPPGPMKKDKDQDSITGVSENGEGIILPSIIAPSSLASEKVDFSSSSDSESEMGPQEATQAESEDGKLTLPLAGIMQHDATKLLPSVTELFPEFRPGKVLRFLRLFGPGKNVPSVWRSARRKRKKKHRELIQEEQIQEVECSVESEVSQKSLWNYDYAPPPPPEQCLSDDEITMMAPVESKFSQSTGDIDKVTDTKPRVAEWRYGPARLWYDMLGVPEDGSGFDYGFKLRKTEHEPVIKSRMIEEFRKLEENNGTDLLADENFLMVTQLHWEDDIIWDGEDVKHKGTKPQRASLAGWLPSSMTRNAMAYNVQQGFAATLDDDKPWYSIFPIDNEDLVYGRWEDNIIWDAQAMPRLLEPPVLTLDPNDENLILEIPDEKEEATSNSPSKESKKESSLKKSRILLGKTGVIKEEPQQNMSQPEVKDPWNLSNDEYYYPKQQGLRGTFGGNIIQHSIPAVELRQPFFPTHMGPIKLRQFHRPPLKKYSFGALSQPGPHSVQPLLKHIKKKAKMREQERQASGGGEMFFMRTPQDLTGKDGDLILAEYSEENGPLMMQVGMATKIKNYYKRKPGKDPGAPDCKYGETVYCHTSPFLGSLHPGQLLQAFENNLFRAPIYLHKMPETDFLIIRTRQGYYIRELVDIFVVGQQCPLFEVPGPNSKRANTHIRDFLQVFIYRLFWKSKDRPRRIRMEDIKKAFPSHSESSIRKRLKLCADFKRTGMDSNWWVLKSDFRLPTEEEIRAMVSPEQCCAYYSMIAAEQRLKDAGYGEKSFFAPEEENEEDFQMKIDDEVRTAPWNTTRAFIAAMKGKCLLEVTGVADPTGCGEGFSYVKIPNKPTQQKDDKEPQPVKKTVTGTDADLRRLSLKNAKQLLRKFGVPEEEIKKLSRWEVIDVVRTMSTEQARSGEGPMSKFARGSRFSVAEHQERYKEECQRIFDLQNKVLSSTEVLSTDTDSSSAEDSDFEEMGKNIENMLQNKKTSSQLSREREEQERKELQRMLLAAGSAASGNNHRDDDTASVTSLNSSATGRCLKIYRTFRDEEGKEYVRCETVRKPAVIDAYVRIRTTKDEEFIRKFALFDEQHREEMRKERRRIQEQLRRLKRNQEKEKLKGPPEKKPKKMKERPDLKLKCGACGAIGHMRTNKFCPLYYQTNAPPSNPVAMTEEQEEELEKTVIHNDNEELIKVEGTKIVLGKQLIESADEVRRKSLVLKFPKQQLPPKKKRRVGTTVHCDYLNRPHKSIHRRRTDPMVTLSSILESIINDMRDLPNTYPFHTPVNAKVVKDYYKIITRPMDLQTLRENVRKRLYPSREEFREHLELIVKNSATYNGPKHSLTQISQSMLDLCDEKLKEKEDKLARLEKAINPLLDDDDQVAFSFILDNIVTQKMMAVPDSWPFHHPVNKKFVPDYYKVIVNPMDLETIRKNISKHKYQSRESFLDDVNLILANSVKYNGPESQYTKTAQEIVNVCYQTLTEYDEHLTQLEKDICTAKEAALEEAELESLDPMTPGPYTPQPPDLYDTNTSLSMSRDASVFQDESNMSVLDIPSATPEKQVTQEGEDGDGDLADEEEGTVQQPQASVLYEDLLMSEGEDDEEDAGSDEEGDNPFSAIQLSESGSDSDVGSGGIRPKQPRMLQENTRMDMENEESMMSYEGDGGEASHGLEDSNISYGSYEEPDPKSNTQDTSFSSIGGYEVSEEEEDEEEEEQRSGPSVLSQVHLSEDEEDSEDFHSIAGDSDLDSDE
In the case of B5, the binding result is listed as “no binding” with radiolabeled nTBP and “binds” in assay [6].

B6: dTAFII40 (other)
chain: MSAEKSDKAKISAQIKHVPKDAQVIMSILKELNVQEYEPRVVNQLLEFTFRYVTCILDDAKVYANHARKKTIDLDDVRLATEVTLDKSFTGPLERHVLAKVADVRNSMPLPPIKPHCGLRLPPDRYCLTGVNYKLRATNQPKKMTKSAVEGRPLKTVVKPVSSANGPKRPHSVVAKQQVVTIPKPVIKFTTTTTTKTVGSSGGSGGGGGQEVKSESTGAGGDLKMEVDSDAAAVGSIAGASGSGAGSASGGGGGGGSSGVGVAVKREREEEEFEFVTN
On to B6, for which the binding result in assay [1] is reported as “no binding”.
